Square brackets hold non-standard residues; d marks the D form. Ends that are not written are not given here. pY = N[C@@H](Cc1ccc(OP(=O)(O)O)cc1)C(=O)O
Molecular target: T1, CTpY phosphopeptide (PLCγ1 pTyr783) 779-790 (Homo sapiens, UniProt P19174)
T1 chain: NPGF[pY]VEANPMP
Assay: NMR titration

B1: PLCγ1 tandem SH2 (NSH2CSH2ΔCT) nSH2-cSH2 545-770 (protein)
chain: HSNEKWFHGKLGAGRDGRHIAERLLTEYCIETGAPDGSFLVRESETFVGDYTLSFWRNGKVQHCRIHSRQDAGTPKFFLTDNLVFDSLYDLITHYQQVPLRCNEFEMRLSEPVPQTNAHESKEWYHASLTRAQAEHMLMRVPRDGAFLVRKRNEPNSYAISFRAEGKIKHCRVQQEGQTVMLGNSEFDSLVDLISYYEKHPLYRKMKLRYPINEEALEKIGTAEPD
With B1 the Kd was < 15 µM.

Reference: paper PMC6035297 (2018)
